The text below walks through data of PMC5787697, “Transcriptome-wide identification of the RNA-binding landscape of the chromatin-associated protein PARP1 reveals functions in RNA biogenesis”.

Data set [1] has as its target T1, PARP1-ΔBRCT (human, UniProt P09874 1-1014, del367-494). The data set is described as follows: EMSA; Table 2 value not in material; 25 mM Tris pH 7.5, 75 mM NaCl, 50 mM arginine, 0.1 mM TCEP, 0.1 ug/ul BSA, room temperature 30 min; 0.05 uM probe, 0-2.5 uM protein; native 10% PAGE in TBE. As to conditions: protein: recombinant; tags: His; chain copies: 2; label: 5'-32P; single strand. On the technique in general: In EMSA bound probe runs differently from free probe, usually more slowly.

The target in data set [2] is T2, PARP1-ΔZn3 (human, UniProt P09874 1-1014, del232-374). The data set is described as follows: EMSA; lowest affinity, within 2-3 fold of FL; Table 2 value not in material; 25 mM Tris pH 7.5, 75 mM NaCl, 50 mM arginine, 0.1 mM TCEP, 0.1 ug/ul BSA, room temperature 30 min; 0.05 uM probe, 0-2.5 uM protein; native 10% PAGE in TBE. The conditions noted are these: protein: recombinant; tags: His; chain copies: 2; label: 5'-32P; single strand.
T2 sequence (P09874 other isoform, or with tags, fused parts or gaps del232-374 | mutant): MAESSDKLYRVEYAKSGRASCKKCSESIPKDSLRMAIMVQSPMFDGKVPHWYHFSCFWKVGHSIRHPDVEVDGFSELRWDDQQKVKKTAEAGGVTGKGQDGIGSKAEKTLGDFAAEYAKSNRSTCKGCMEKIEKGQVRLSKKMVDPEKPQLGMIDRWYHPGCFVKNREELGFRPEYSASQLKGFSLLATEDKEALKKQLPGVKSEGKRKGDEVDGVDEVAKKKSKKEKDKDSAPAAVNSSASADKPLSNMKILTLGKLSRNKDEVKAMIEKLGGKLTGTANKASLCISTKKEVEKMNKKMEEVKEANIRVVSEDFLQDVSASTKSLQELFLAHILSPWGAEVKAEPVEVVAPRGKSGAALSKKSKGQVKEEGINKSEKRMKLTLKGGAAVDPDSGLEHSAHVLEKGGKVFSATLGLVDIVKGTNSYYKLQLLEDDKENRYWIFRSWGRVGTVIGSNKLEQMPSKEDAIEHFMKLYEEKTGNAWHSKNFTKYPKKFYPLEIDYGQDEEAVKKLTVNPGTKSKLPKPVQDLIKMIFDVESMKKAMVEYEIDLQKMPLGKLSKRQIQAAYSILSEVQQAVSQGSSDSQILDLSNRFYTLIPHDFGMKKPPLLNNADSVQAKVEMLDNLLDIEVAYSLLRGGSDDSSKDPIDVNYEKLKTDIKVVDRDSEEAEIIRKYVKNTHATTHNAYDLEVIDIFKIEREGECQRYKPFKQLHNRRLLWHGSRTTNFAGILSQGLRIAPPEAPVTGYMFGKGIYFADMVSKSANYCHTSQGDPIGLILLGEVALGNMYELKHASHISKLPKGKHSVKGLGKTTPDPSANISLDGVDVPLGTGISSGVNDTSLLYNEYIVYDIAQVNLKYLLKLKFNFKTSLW

Data set [3] deals with T3, PARP1-ΔWGR (human, UniProt P09874 1-1014, del518-654). Briefly: EMSA; affinity not significantly changed from FL; Table 2 value not in material; 25 mM Tris pH 7.5, 75 mM NaCl, 50 mM arginine, 0.1 mM TCEP, 0.1 ug/ul BSA, room temperature 30 min; 0.05 uM probe, 0-2.5 uM protein; native 10% PAGE in TBE. The conditions noted are these: protein: recombinant; tags: His; chain copies: 2; label: 5'-32P; single strand.
T3 sequence (P09874 other isoform, or with tags, fused parts or gaps del518-654 | mutant): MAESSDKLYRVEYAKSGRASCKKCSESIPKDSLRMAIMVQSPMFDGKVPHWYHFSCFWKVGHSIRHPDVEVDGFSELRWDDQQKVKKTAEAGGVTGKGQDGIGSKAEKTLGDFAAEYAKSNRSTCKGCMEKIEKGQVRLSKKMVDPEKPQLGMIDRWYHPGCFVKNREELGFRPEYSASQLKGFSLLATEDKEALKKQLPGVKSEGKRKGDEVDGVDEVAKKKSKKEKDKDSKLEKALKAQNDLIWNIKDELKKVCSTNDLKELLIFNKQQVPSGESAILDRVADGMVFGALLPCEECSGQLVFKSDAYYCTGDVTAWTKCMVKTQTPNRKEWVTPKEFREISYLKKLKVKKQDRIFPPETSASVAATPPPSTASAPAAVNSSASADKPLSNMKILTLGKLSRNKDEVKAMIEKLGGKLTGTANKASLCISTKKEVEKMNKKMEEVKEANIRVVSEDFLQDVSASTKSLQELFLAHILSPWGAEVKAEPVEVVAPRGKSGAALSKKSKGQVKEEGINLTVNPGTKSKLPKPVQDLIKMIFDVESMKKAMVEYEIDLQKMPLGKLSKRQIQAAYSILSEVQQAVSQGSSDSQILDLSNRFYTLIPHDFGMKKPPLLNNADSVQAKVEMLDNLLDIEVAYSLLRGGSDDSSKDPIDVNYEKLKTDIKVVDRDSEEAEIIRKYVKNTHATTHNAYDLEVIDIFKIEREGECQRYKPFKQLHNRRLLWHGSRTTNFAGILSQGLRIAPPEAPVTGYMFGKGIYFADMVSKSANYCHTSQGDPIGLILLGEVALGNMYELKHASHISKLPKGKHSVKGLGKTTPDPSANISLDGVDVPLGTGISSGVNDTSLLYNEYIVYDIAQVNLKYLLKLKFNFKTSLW

Data set [4] has as its target T1, PARP1-ΔBRCT. Briefly: EMSA; monomer-equivalent K, n=1.94±0.11; 25 mM Tris pH 7.5, 75 mM NaCl, 50 mM arginine, 0.1 mM TCEP, 0.1 ug/ul BSA, room temperature 30 min; 0.05 uM probe, 0-2.5 uM protein; native 10% PAGE in TBE. As to conditions: protein: recombinant; tags: His; chain copies: 2; label: 32P; single strand.
The target of data set [5] is T3, PARP1-ΔWGR. The data set is described as follows: EMSA; monomer-equivalent K, n=2.13±0.07; 25 mM Tris pH 7.5, 75 mM NaCl, 50 mM arginine, 0.1 mM TCEP, 0.1 ug/ul BSA, room temperature 30 min; 0.05 uM probe, 0-2.5 uM protein; native 10% PAGE in TBE. As to conditions: protein: recombinant; tags: His; chain copies: 2; label: 32P; single strand.
Data set [6] has as its target T2, PARP1-ΔZn3. The data set is described as follows: EMSA; monomer-equivalent K, n=2.17±0.12; 25 mM Tris pH 7.5, 75 mM NaCl, 50 mM arginine, 0.1 mM TCEP, 0.1 ug/ul BSA, room temperature 30 min; 0.05 uM probe, 0-2.5 uM protein; native 10% PAGE in TBE. The conditions noted are these: protein: recombinant; tags: His; chain copies: 2; label: 32P; single strand.
Data set [7] deals with T2, PARP1-ΔZn3. The data set is described as follows: competition EMSA; vs N1 in same reaction; 25 mM Tris pH 7.5, 75 mM NaCl, 50 mM arginine, 0.1 mM TCEP, 0.1 ug/ul BSA, room temperature 30 min; 0.05 uM probe, 0-2.5 uM protein; native 10% PAGE in TBE. As to conditions: protein: recombinant; tags: His; label: 32P; single strand.
For data set [8], the target named is T3, PARP1-ΔWGR. Described as above. As to conditions: protein: recombinant; tags: His; label: 32P; single strand.
For data set [9], the target named is T1, PARP1-ΔBRCT. Described as above. As to conditions: protein: recombinant; tags: His; label: 32P; single strand.
Data set [10] deals with T3, PARP1-ΔWGR. The data set is described as follows: EMSA; monomer-equivalent K, n=1.04±0.11; 25 mM Tris pH 7.5, 75 mM NaCl, 50 mM arginine, 0.1 mM TCEP, 0.1 ug/ul BSA, room temperature 30 min; 0.05 uM probe, 0-2.5 uM protein; native 10% PAGE in TBE. The conditions noted are these: protein: recombinant; tags: His; chain copies: 2; label: 32P; single strand.
Data set [11] has as its target T2, PARP1-ΔZn3. Briefly: EMSA; monomer-equivalent K, n=1.41±0.08; 25 mM Tris pH 7.5, 75 mM NaCl, 50 mM arginine, 0.1 mM TCEP, 0.1 ug/ul BSA, room temperature 30 min; 0.05 uM probe, 0-2.5 uM protein; native 10% PAGE in TBE. As to conditions: protein: recombinant; tags: His; chain copies: 2; label: 32P; single strand.
Data set [12] deals with T1, PARP1-ΔBRCT. Briefly: EMSA; monomer-equivalent K, n=2.23±0.10; 25 mM Tris pH 7.5, 75 mM NaCl, 50 mM arginine, 0.1 mM TCEP, 0.1 ug/ul BSA, room temperature 30 min; 0.05 uM probe, 0-2.5 uM protein; native 10% PAGE in TBE. As to conditions: protein: recombinant; tags: His; chain copies: 2; label: 32P; single strand.

T1 sequence (P09874 other isoform, or with tags, fused parts or gaps del367-494 | mutant): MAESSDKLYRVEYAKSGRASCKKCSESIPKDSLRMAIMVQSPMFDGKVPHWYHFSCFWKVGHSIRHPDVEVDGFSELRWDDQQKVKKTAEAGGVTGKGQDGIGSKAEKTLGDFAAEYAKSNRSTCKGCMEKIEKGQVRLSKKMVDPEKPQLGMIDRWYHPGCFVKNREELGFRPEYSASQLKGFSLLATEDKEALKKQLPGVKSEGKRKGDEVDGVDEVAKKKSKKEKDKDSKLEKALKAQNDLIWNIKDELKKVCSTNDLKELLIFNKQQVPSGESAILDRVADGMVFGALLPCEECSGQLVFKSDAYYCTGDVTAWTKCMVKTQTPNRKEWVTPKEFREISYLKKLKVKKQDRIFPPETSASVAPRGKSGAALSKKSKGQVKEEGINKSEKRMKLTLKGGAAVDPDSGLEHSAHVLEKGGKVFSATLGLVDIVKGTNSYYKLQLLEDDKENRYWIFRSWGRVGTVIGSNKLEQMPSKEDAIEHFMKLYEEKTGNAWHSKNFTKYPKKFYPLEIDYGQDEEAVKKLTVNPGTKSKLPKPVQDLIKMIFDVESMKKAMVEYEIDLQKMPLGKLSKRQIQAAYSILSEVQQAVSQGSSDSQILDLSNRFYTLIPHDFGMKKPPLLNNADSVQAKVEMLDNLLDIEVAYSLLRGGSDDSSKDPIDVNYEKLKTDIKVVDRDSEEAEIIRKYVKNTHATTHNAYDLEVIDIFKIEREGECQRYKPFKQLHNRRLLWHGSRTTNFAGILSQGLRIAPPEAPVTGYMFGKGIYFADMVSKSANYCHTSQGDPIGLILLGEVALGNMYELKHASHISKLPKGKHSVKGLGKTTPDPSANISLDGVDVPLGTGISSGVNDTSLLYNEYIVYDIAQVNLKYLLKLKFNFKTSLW

UAGGCACCGGCAUCUUGAC (ssRNA) [19-mer ssRNA]: the binding result with PARP1-ΔBRCT [1], with PARP1-ΔZn3 [2] and with PARP1-ΔWGR [3] was “binds” in each case.
As for CCGUACGCGGGUUUAAACGA (ssRNA) [20-mer ssRNA], the results for the Ka with PARP1-ΔBRCT [4], with PARP1-ΔWGR [5] and in the data set with PARP1-ΔZn3 [6] were 1.19e+06 M⁻¹, 1.46e+06 M⁻¹ and 1.3e+06 M⁻¹, respectively.
As for TAGGCACCGGCATCTTGAC (ssDNA) [19-mer ssDNA], the binding signal was found to be 23.1 ± 5.2 KDNA/KRNA with PARP1-ΔZn3 [7], 26.5 ± 2.4 KDNA/KRNA in the data set with PARP1-ΔWGR [8] and 42.3 ± 1.2 KDNA/KRNA in the data set with PARP1-ΔBRCT [9].
For the molecule CGUACGCGGAAUAGUUUAAACUGU (ssRNA) [24-mer ssRNA], the Ka with PARP1-ΔWGR [10] amounted to 3.4e+06 M⁻¹; in the data set with PARP1-ΔZn3 [11], 1.86e+06 M⁻¹; in the data set with PARP1-ΔBRCT [12], 2.38e+06 M⁻¹.
